Test results reported in paper PMC9051516.

Assays:
[1] = molecular target: TGBp1-cYFP (cowpea mild mottle virus triple gene block protein 1 fused to the C-terminal half of YFP) (cowpea mild mottle virus (isolate CPMMV_AH_SZ)); assay: split reporter (BiFC, NanoBiT); BiFC: nYFP and cYFP fusions co-expressed by agroinfiltration in N. benthamiana leaves; YFP signal by confocal microscopy 48 h after infiltration; mean intensity of whole images by ImageJ
[2] = molecular target: TGBp1-cYFP (cowpea mild mottle virus triple gene block protein 1 fused to the C-terminal half of YFP) (cowpea mild mottle virus (isolate CPMMV_AH_SZ)); assay: split reporter (BiFC, NanoBiT); BiFC of the TGBp1 and TGBp3 YFP halves with TGBp2-Flag co-expressed in N. benthamiana leaves; confocal microscopy 48 h after infiltration; mean intensity of whole images by ImageJ

Substance: TGBp3-nYFP (cowpea mild mottle virus triple gene block protein 3 fused to the N-terminal half of YFP) (natural protein)
- mean fluorescence intensity of the BiFC signal, without TGBp2-Flag [1]: 75.7
- mean fluorescence intensity of the BiFC signal, with TGBp2-Flag co-expressed [2]: 95.9
